Test results: article PMC314469, “Protein Interaction Networks by Proteome Peptide Scanning” (PLoS Biology, 2004)

T1: Yhr016c SH3 (YSC84_YEAST), P32793
T1 chain: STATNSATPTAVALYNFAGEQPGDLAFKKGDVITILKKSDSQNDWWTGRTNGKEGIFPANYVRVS

T2: Boi2 SH3 (BOI2_YEAST), P39969
T2 chain: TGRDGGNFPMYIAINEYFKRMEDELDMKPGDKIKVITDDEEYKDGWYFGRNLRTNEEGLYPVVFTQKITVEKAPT

T3: Myo5 SH3 (MYO5_YEAST), Q04439
T3 chain: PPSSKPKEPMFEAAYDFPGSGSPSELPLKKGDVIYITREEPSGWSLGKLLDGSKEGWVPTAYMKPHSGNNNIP

T4: Boi1 SH3 (BOI1_YEAST), P38041
T4 chain: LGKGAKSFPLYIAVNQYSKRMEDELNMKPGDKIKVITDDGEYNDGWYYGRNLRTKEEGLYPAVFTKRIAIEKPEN

T5: Yfr024 SH3 (LSB3_YEAST), P43603
T5 chain: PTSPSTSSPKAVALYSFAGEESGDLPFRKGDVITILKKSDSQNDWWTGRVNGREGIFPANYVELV

T6: Rvs167 SH3 (RV167_YEAST), P39743
T6 chain: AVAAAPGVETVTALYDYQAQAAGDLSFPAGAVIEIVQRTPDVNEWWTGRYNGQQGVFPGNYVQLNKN


Experiments:
Experiment in all cases: SPOT array
[1] = target: T1, Yhr016c SH3 (YSC84_YEAST), P32793
[2] = target: Sho1 SH3 (SHO1_YEAST), P40073
Sequence of Sho1 SH3 (SHO1_YEAST), P40073 (P40073 295-366): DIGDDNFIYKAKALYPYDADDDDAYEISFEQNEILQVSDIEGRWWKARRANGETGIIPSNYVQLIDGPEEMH

[3] = target: T2, Boi2 SH3 (BOI2_YEAST), P39969
[4] = target: T3, Myo5 SH3 (MYO5_YEAST), Q04439
[5] = target: T4, Boi1 SH3 (BOI1_YEAST), P38041
[6] = target: T5, Yfr024 SH3 (LSB3_YEAST), P43603
[7] = target: T6, Rvs167 SH3 (RV167_YEAST), P39743

Row | normalised SPOT signal, Boehringer light units (BLU); mean over the file's lines of this peptide [1] | normalised SPOT signal, Boehringer light units (BLU); mean over the file's lines of this peptide [2] | normalised SPOT signal, Boehringer light units (BLU); mean over the file's lines of this peptide [3] | normalised SPOT signal, Boehringer light units (BLU); mean over the file's lines of this peptide [4] | normalised SPOT signal, Boehringer light units (BLU); mean over the file's lines of this peptide [5] | normalised SPOT signal, Boehringer light units (BLU); mean over the file's lines of this peptide [6] | normalised SPOT signal, Boehringer light units (BLU); mean over the file's lines of this peptide [7] | Binder
1 | 19.5 | 26.1 | 19.6 | 312 | 85.4 | 38.8 | 38.3 | LLEERNNPDIPVDK [YBR055C 407-420]
2 | 14.5 | 1920 | 8.8 | 118 | 93.4 | 71.9 | 35.5 | LNKTKLLPQSPILN [YJR005W 603-616]
3 | 554 | 661 | 294 | 348 | 796 | 2420 | 1340 | LMSLKRFPQLPSNT [YOL125W 162-175]
4 | 488 | 350 | 21.8 | 518 | 152 | 3640 | 144 | LKDNRLLPSWPKRG [YIL047C 206-219]
5 | 32.4 | 204 | 16.1 | 307 | 711 | 255 | 35.2 | LKKQKAIPSSPSGM [YMR179W 684-697]
6 | 26.4 | 24.8 | 0 | 255 | 139 | 16 | 111 | LNQSKGQPFQPSPT [YBL101C 22-35]
7 | 28.4 | 47.5 | 7.5 | 33.7 | 126 | 168 | 16.4 | LLVTKERPRFPEDD [YIL129C 688-701]
8 | 22.8 | 131 | -0 | 256 | 92.6 | 26.9 | 53 | LNFPKNIPTIPFYV [YDR402C 27-40]
9 | 23.9 | 20.5 | 39.1 | 153 | 63.9 | 2.4 | 60.3 | LNGLKSSPADPHLS [YLR072W 61-74]
10 | 3490 | 1360 | 57.4 | 554 | 1070 | 1290 | 1630 | LNFKRLLPRDPSEK [YBR239C 260-273]
11 | 16.8 | 45.5 | 25.8 | 406 | 1870 | 47.5 | 39.5 | LKHTKNKPKNPDTA [YGL131C 1018-1031]
12 | 73 | 106 | 30.5 | 354 | 139 | 1320 | 71.9 | LIWHKSKPVKPTNK [YBL005W-B 1591-1604]
13 | 14.3 | 17.1 | 3.5 | 172 | -0 | 154 | 17.2 | LLPTKLIPSIPGGK [YER105C 312-325]
14 | 81 | 54.1 | 19.2 | 161 | 103 | 0 | 128 | LNLSKDAPVPPAPE [YOL006C 316-329]
15 | 8.4 | 31.8 | 0 | 114 | 51.9 | 38.8 | 29.4 | LNATKISPSAPSKD [YAR002W 346-359]
16 | 173 | 585 | 506 | 8000 | 4910 | 3720 | 1240 | LNPNRRAPRRPLST [YJL128C 180-193]
